Data on 134 substances can be found in the supplement of paper PMC12042874.

± gives the uncertainty stated by the source.

A short description of the data set: amyloid nucleation score (Sup35N fusion, yeast selection) (log enrichment); library NNK3; higher = more nucleation; inactive = no reads after selection. Summed up:
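Plasmid inserts were Illumina-sequenced at input and output from psi-negative yeast expressing Sup35N fused to peptides of 20 random codons. The yeast were induced with 100 μM copper sulfate for 24 hours and grown 7 days at 30°C on medium lacking adenine and uracil, and sequences with under 100 input reads were excluded. Nucleation score is the DiMSum log enrichment of output over input reads, centred on the mode score of non-aggregating sequences.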
Consider FPSVIINLGISFFLSSELIV, for which the amyloid nucleation score stood at 1.08 ± 0.11. FLSGVTWHAYMIHSVFMDRC displayed an amyloid nucleation score of 0.881 ± 0.21. LSTIIHDFIGCCAVNAQLIG: the amyloid nucleation score entry was “inactive”. The result for KTRSAMRDLVVSFWYF reads 1.65 ± 0.075; that for VHGPKNCWKCDFKER, “inactive”.

Regarding MYVWLRCKLIGNSFLRVKCS, the amyloid nucleation score result was “inactive”.

Consider AWNLS, for which the amyloid nucleation score result is “inactive”.

Turning to VVCLYILHIPCSVRRHTLAD, the amyloid nucleation score result was “inactive”. The result for TLNLVSSTICLFR reads “inactive”; that for DEISSFER, “inactive”; that for VSNLLIKVTRHASYDQSS, “inactive”. On to YKHVARLEP, for which the amyloid nucleation score entry was “inactive”.

Consider FSFPCRTVAWFWYDFHFIGL, for which the amyloid nucleation score entry is “inactive”. For the substance IQYRGYGYMNSIWYGVERFF, the amyloid nucleation score is 0.626 ± 0.28. Turning to RRNWSCMQTLSLANVVRVSA, the amyloid nucleation score entry is “inactive”. Take RSYLHCSTK: the amyloid nucleation score entry is “inactive”. As for PDRMIGGLSFRKFDISCPYA, the amyloid nucleation score entry was “inactive”. For MSWGGCNAVRKFFECRRRVQ, the amyloid nucleation score amounted to 0.222 ± 0.5.

For TKSYFRINMFAVLDRCGLCR, the amyloid nucleation score entry is “inactive”. The result for NLHAEWMDGSTGRKIAWNNG reads “inactive”; that for GGCGMDV, “inactive”; that for IDFILWQFVMF, “inactive”. With VFGPRRPMVNCSN, the amyloid nucleation score result is “inactive”.

Turning to LAVFFDRD, the amyloid nucleation score entry was “inactive”. Turning to IFNNLTGFNNKGS, the amyloid nucleation score entry was “inactive”. The result for AFFTFGAPCIQDNESGDRGG reads “inactive”. In turn, GFGQATTCLSLNSACF displayed an amyloid nucleation score of 0.544 ± 0.18. Regarding NAQGVSKWEDTRSNLNRLVV, the amyloid nucleation score entry was “inactive”. To RSKRSLCRGLPDMYAWKWSR belongs “inactive”; to SNCTLRE, “inactive”; to SSKSWLRYRVDEHTVSTFGF, “inactive”. To PFCFELSWGYGKNKVATMRY belongs “inactive”. On to KWCKKKQFKSLDWLTYDI, for which the amyloid nucleation score entry was “inactive”.

As for FNILSLSRTSNYPRHCLFRL, the amyloid nucleation score result was “inactive”. As for FGRVT, the amyloid nucleation score result is “inactive”. For CAVALLNHRG, the amyloid nucleation score entry is “inactive”. The result for VDNIVVVCCFKDNCLSKG reads 1.85 ± 0.09. As to HSIHSDNRVLWLFDWSLSSR, the amyloid nucleation score entry is “inactive”. The result for RHRFSTSGRYFVSIRLVSSF reads “inactive”; that for GRTYSGYTGWRGVLGHDLVM, “inactive”. The result for PWSWWTHYTSGCQYQFGYRG reads -0.749 ± 1.1; that for SRSINCFPMLILLVL, “inactive”; that for TVWELM, -0.068 ± 0.33. In the case of FFYRVSVSLSRAKI, the amyloid nucleation score result is “inactive”. In the case of LVIWYLQSLYSPGINCQDLR, the amyloid nucleation score result was “inactive”. The substance EMDTCIQWLSRVLSGPDSFF displayed an amyloid nucleation score of -0.72 ± 0.8. To YNFVPVFHVNMSVFLCILVL belongs 2.43 ± 0.072.

In the case of NQRSAILVGPSRNLQY, the amyloid nucleation score entry was “inactive”. On to SVYFFQGTL, for which the amyloid nucleation score is 1.29 ± 0.084. For PSKPRTGQVGGVYHLCVVFW, the amyloid nucleation score entry is “inactive”. The result for WLHKH reads “inactive”; that for MLFPPLLGNWLDSGTTQVRR, “inactive”; that for RNIYM, “inactive”. The result for RYTTY reads “inactive”; that for IMGALLTYSRTTGRVNYRMW, “inactive”. Take MFLWRDCNGTN: the amyloid nucleation score result is “inactive”. With RASMYG, the amyloid nucleation score entry is “inactive”. As for IISHKQRSRVIVCSGS, the amyloid nucleation score result was “inactive”. In the case of SLEIEK, the amyloid nucleation score result is “inactive”.

With PSRRRMYADFHKATFPVRMG, the amyloid nucleation score entry was “inactive”. With FMKEVSGRQDLLRPIMIHNA, the amyloid nucleation score entry is “inactive”. Regarding RLRRSGVKWVVLKGGTRTWQ, the amyloid nucleation score entry is “inactive”. In turn, VRVLDWNLMHFFFSYKRFLQ displayed an amyloid nucleation score of -0.094 ± 0.25. In turn, SMDTE returned an amyloid nucleation score of 0.734 ± 0.17. The result for IVRWGSQSGVYRMPIEAWKW reads “inactive”; that for IAVCHLFLQYLCSRSTFMTL, “inactive”. With WLSLFVIMPCLWGFCSMDSN, the amyloid nucleation score was found to be 1.47 ± 0.11. Take LYGGLEHESIMFIRCSGWIC: the amyloid nucleation score entry is “inactive”. Take SPRNMWI: the amyloid nucleation score entry was “inactive”. In the case of SILLIFCLSKTRFSVMSFLP, the amyloid nucleation score entry was “inactive”. To NQMEN belongs 0.843 ± 0.36. On to WVFRFRNQ, for which the amyloid nucleation score entry is “inactive”. For the substance RKAYATYATDRLISSDYG, the amyloid nucleation score result is “inactive”.

Take MDAISFQRDMMFNGGFFCAM: the amyloid nucleation score entry is “inactive”.

FNIGFSSDSYAPWLFMICEM: the amyloid nucleation score entry is “inactive”.

The substance GFHLGFHGWNCKLAK returned an amyloid nucleation score of -0.349 ± 0.49. The result for KIFYYTWYSLSYTIQLYGLQ reads “inactive”.

For LLYETLLIIMCGKCLQFYIV, the amyloid nucleation score entry is “inactive”. With YWKRAGPQFGVPDSWTPSGP, the amyloid nucleation score entry is “inactive”. Consider LDVMTCNRLKVTVDFMCMNA, for which the amyloid nucleation score result was “inactive”. In the case of YDNANGRTRIIMISGRVSNY, the amyloid nucleation score entry is “inactive”. Take FRVSVIFIFGCHMFGVLMTP: the amyloid nucleation score entry was “inactive”.

RVWVMV: the amyloid nucleation score entry is “inactive”.

For the substance TMSIFDPVE, the amyloid nucleation score was found to be 1.09 ± 0.11. Consider IDGWRGELVMTYN, for which the amyloid nucleation score was 0.025 ± 0.48. Turning to LIVRLDPIFKKIKNK, the amyloid nucleation score was found to be 1.27 ± 0.11. For QLRRCLEMARYSKARFRNCM, the amyloid nucleation score entry is “inactive”. As for SDYSLYWFK, the amyloid nucleation score result is “inactive”. The result for LIVAFSLASLGLKFSQCSWA reads -0.363 ± 0.96.

Turning to NDARAVGCTLRYKGLAIYSY, the amyloid nucleation score result is “inactive”.

LTTICS: the amyloid nucleation score entry is “inactive”. As to LVRVGSSNYLVNQIRPNISA, the amyloid nucleation score entry was “inactive”. On to IGYVMFGTSSSAFRITYISK, for which the amyloid nucleation score entry is “inactive”.

As to KSMYWLYCTEWEHSNMHVFM, the amyloid nucleation score came to 0.17 ± 0.68. DFYGCGFTFTRSFFRQWFIG had an amyloid nucleation score of 1.09 ± 0.11. On to DTMNLRWSVWRRHVWCLTGE, for which the amyloid nucleation score entry was “inactive”. The result for LELVYGKIYSDPSTFRGHLV reads “inactive”. In the case of RGINDDSPF, the amyloid nucleation score entry is “inactive”. For PCPLGPYLGYFTETSYAHGM, the amyloid nucleation score entry was “inactive”. For the substance SYMISPAVGKDRDM, the amyloid nucleation score result is “inactive”. Turning to LVICKNINKLISWLSDYSFA, the amyloid nucleation score result is “inactive”. As for RDGFN, the amyloid nucleation score result is “inactive”. In turn, GTPYCICALSMHSTWDCN came in with an amyloid nucleation score of 1.64 ± 0.081. With SRCWVYRKRTPCNVY, the amyloid nucleation score result was “inactive”. To WSETNTFS belongs “inactive”. With AVCYRLWFKM, the amyloid nucleation score entry was “inactive”. With DINAVT, the amyloid nucleation score entry was “inactive”.

For the substance IILRTWVSTLQSNSAIEVTL, the amyloid nucleation score result is “inactive”. In turn, RFSCEYVATLTLSGRQAVKH had an amyloid nucleation score of 0.043 ± 0.72.

WFYGRLLPVPVLWIIRLKKG: the amyloid nucleation score stood at 0.01 ± 0.59.

Regarding EGSYVYIKDYI, the amyloid nucleation score entry was “inactive”. With PSHPVPLFHE, the amyloid nucleation score result was “inactive”. The result for GFFELYS reads “inactive”; that for KVILPWKLWADGWRDY, “inactive”; that for DGDYL, “inactive”. GFRYSLLSSRSFYWHRSPSM: the amyloid nucleation score entry is “inactive”. With IEQPY, the amyloid nucleation score result is “inactive”. For INGSNNATCWVSLSIMKARI, the amyloid nucleation score result is “inactive”. As to SGCERAWMAVCENRSSCILG, the amyloid nucleation score result is “inactive”.

For the substance VKGMKCWCQVRSESGLVSNA, the amyloid nucleation score result is “inactive”.

Take YFFIRVIALYLRVELSL: the amyloid nucleation score result was “inactive”.

With KVFMGRCCWLCSPY, the amyloid nucleation score was 1.42 ± 0.1. To IGVQATVICYWRIMNRGHKR belongs “inactive”; to YPLRSGF, “inactive”; to LKIWGRFITGETV, “inactive”. The result for VRTVFCNIFFEFRGGSRNWA reads 1.79 ± 0.11; that for FLLERLSV, “inactive”; that for SYLQQLDLSRDGTVLLKSGI, “inactive”. Take DYYIAPRVPYHVTTWNKDYL: the amyloid nucleation score entry is “inactive”. In the case of RLILDNHDTSFCLIHGSRMI, the amyloid nucleation score entry was “inactive”. In turn, VFYLCNFWGCWTCSIAVIVS had an amyloid nucleation score of 0.576 ± 0.17. To TSTSAYILGPVTQ belongs “inactive”; to VIILTYVSMLTTAHINGWSG, 0.309 ± 0.29. As to ANHNLYRDDDREYFFMLCY, the amyloid nucleation score result was “inactive”.
